Assay results reported in patent US20250003958A1.

Tests used:
[1] = target: CD8 on CD8-positive cells (PBMCs in Example 1, Immuno-Trol cells in Example 3) (UniProt P01732); experiment: negative control; magnetic bead depletion of Immuno-Trol cells, flow cytometry of the supernatant (41% before addition of beads)
[2] = target: CD8 on CD8-positive cells (PBMCs in Example 1, Immuno-Trol cells in Example 3) (UniProt P01732); experiment: negative control; magnetic bead depletion of Immuno-Trol cells, flow cytometry of the supernatant (59% before addition of beads)
[3] = target: CD8 on CD8-positive cells (PBMCs in Example 1, Immuno-Trol cells in Example 3) (UniProt P01732); experiment: negative control; magnetic bead depletion of PBMCs, flow cytometry of the supernatant (72% before addition of beads)
[4] = target: CD4 on CD4-positive cells (PBMCs) (UniProt P01730); experiment: negative control; magnetic bead depletion of PBMCs, flow cytometry of the supernatant (82% before addition of beads)
[5] = target: CD8 on CD8-positive cells (PBMCs in Example 1, Immuno-Trol cells in Example 3) (UniProt P01732); experiment: negative control; cells trapped by beads, released with DNase I, flow cytometry
[6] = target: CD4 on CD4-positive cells (PBMCs) (UniProt P01730); experiment: as above
[7] = target: CD8 on CD8-positive cells (PBMCs in Example 1, Immuno-Trol cells in Example 3) (UniProt P01732); experiment: negative control; magnetic bead depletion of PBMCs, flow cytometry of the supernatant (28% before addition of beads)
[8] = target: CD4 on CD4-positive cells (PBMCs) (UniProt P01730); experiment: negative control; magnetic bead depletion of PBMCs, flow cytometry of the supernatant (18% before addition of beads)

Sequence of UniProt P01732 (P01732 22-235): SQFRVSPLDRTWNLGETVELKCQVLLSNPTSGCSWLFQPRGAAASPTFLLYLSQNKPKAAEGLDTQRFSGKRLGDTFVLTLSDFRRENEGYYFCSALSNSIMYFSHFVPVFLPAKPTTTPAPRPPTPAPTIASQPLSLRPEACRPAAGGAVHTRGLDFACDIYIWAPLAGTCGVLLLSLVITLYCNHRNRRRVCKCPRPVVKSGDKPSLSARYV

## Control antibody (Biolegend), held on streptavidin magnetic beads through oligo-DNA-modified Protein A/G
[1]
  Ratio of CD3-positive and CD4-negative cells remaining in the supernatant: 39%
[2]
  Ratio of CD3-positive and CD4-positive cells remaining in the supernatant: 61%

## Isotype Control antibody (Biolegend), modified with FITC-introduced synthetic oligo-DNA linker and immobilized on streptavidin magnetic beads
[3]
  Ratio of CD3-positive and CD4-positive cells remaining in the supernatant: 67%
[4]
  Ratio of CD3-positive and CD8-negative cells remaining in the supernatant: 81%
[5]
  Ratio of FITC-positive cells: 19%
[6]
  Ratio of FITC-positive cells: 26%
[7]
  Ratio of CD3-positive and CD4-negative cells remaining in the supernatant: 33%
[8]
  Ratio of CD3-positive and CD8-positive cells remaining in the supernatant: 19%
